From PMC10425842 come the findings set out here.

For assay [1], the target named is UBR5^ΔSBB2 (UBR5 mutant with an SBB2 domain deletion) (human) (UniProt O95071). The assay is described as follows: cryo-EM 2D classification.
The target is the same in assay [2]. The assay is described as follows: mass photometry.

In the case of “UBR5^ΔSBB2 (UBR5 mutant with an SBB2 domain deletion) (from UniProt O95071 1-2799) (enzyme)”, the stoichiometry N in assay [1] and in assay [2] was 2 each time.
